Values quoted from earlier work in article PMC7054563.

Target: Glu150 (UniProt position 150, LMANVELIAPL)

Substance: Multidrug transporter MdfA, triple mutant E26T/D34M/A150E (Escherichia coli; E26T;D34M;A150E)
- pKa: 6.5
